Assay results: article PMC7196805

Target: T1, JUNO (mouse (endogenous in mouse oocytes)) (UniProt Q9EQF4)
T1 sequence: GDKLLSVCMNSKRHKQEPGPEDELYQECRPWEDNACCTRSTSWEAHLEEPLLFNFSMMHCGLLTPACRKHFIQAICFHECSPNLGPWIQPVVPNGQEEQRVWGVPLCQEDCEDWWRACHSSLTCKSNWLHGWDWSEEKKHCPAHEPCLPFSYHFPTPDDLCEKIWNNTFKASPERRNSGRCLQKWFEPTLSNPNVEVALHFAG

cell-oocyte binding assay: IZUMO1-expressing cultured cells bound per ZP-free oocyte (FIMP-expressing cells could not bind) (cells per oocyte): 4 | cell-oocyte binding assay: transfected HEK293T cells coexpressing IZUMO1 and FIMP, bound per oocyte (coexpression of FIMP did not enhance the binding) (cells per oocyte): 4.1 | cell-oocyte binding assay: transfected HEK293T cells expressing IZUMO1 alone, bound per oocyte (cells per oocyte): 4.5
B1: IZUMO1 (natural protein)
chain: CIKCDQFVTDALKTFENTYLNDHLPHDIHKNVMRMVNHEVSSFGVVTSAEDSYLGAVDENTLEQATWSFLKDLKRITDSDLKGELFIKELLWMLRHQKDIFNNLARQFQKEVLCPNKCGVMSQTLIWCLKCEKQLHICRKSLDCGERHIEVHRSEDLVLDCLLSWHRASKGLTDYSFYRVWENSSETLIAKGKEPYLTKSMVGPEDAGNYRCVLDTINQGHATVIRYDVTVLPPKHSEENQPPNIITQEEHETPVHVTPQTPPGQEPESELYPELHPELYPELIPTVAQNPEKKMKTRLLILLTLGFVVLVASIIISVLHFRKVSAKLKNASDEVKPTASGSKSDQSLSQQMGLKKASQADFNSDYSGDKSEATEN
